Data taken from patent US8530168B2, “Fusion protein comprising a Caspase domain and a nuclear hormone receptor binding domain and methods and uses thereof” (Helmholtz Zentrum Munich Deutsches Forschungszentrum fuer …, priority 2007, dated 2013).

What was measured:
Format in all cases: cell-based, mouse
MEF5/N9 cells [1] = assay: MTT cytotoxicity assay of stably transfected MEF5/N9 clones; settings: 10^−8 M 4-OH-tamoxifen, 48 h
Procedure: (§1) To generate stably transfected MEF5/N9 cells, 2·10^6 cells were coelectroporated with 32 μg ER(T2) fusion plasmid DNA linearised with ScaI and 8 μg pPgk-hygro-pA plasmid DNA linearised with XhoI and plated into two 96-well plates. The cells were grown in DMEM medium (Invitrogen) supplemented with 2 mM Glutamine and 10% fetal calf serum at 37° C., 5% CO2 in humid atmosphere, and passaged upon trypsinization. Two days after transfection the medium was supplemented with 250 U/ml of hygromycin (Calbiochem) for the selection of stable integrants. Upon the growth of resistant colonies these were individually expanded in the presence of hygromycin.
To quantify 4-OH-tamoxifen-inducible cell death, we applied the colorimetric MTT assay (Mossman, J. Immunol. Methods, 65, 55 (1983)) allowing the quantification of cell survival. Cells (4·10^3) were plated on 96-well plates. The assay was carried out in three replicas for each sample treated with and without 4-OH-tamoxifen. After 12 h, medium was replaced either with fresh medium or with medium supplemented with 10^−8 M 4-OH-tamoxifen. Following 48 h of 4-OH-tamoxifen treatment, sterile filtered MTT reagent in PBS (Sigma) was added at the concentration of 0.5 mg/ml. Incubation occurred for 4 hours at 37° C. With ongoing reaction time, dark violet MTT formazan crystals appeared on the bottom of the wells containing living cells. The crystals were dissolved in 150 μl 0.04 N HCl/isopropanol to give a homogeneous blue solution suitable for absorbance measurement at a wavelength of 570 nm on the Synergy™ HT Multi-Detection Microplate Reader (BioTek).

MEF5/N9 cells [2] = assay: Visible phenotypic changes / viability of stably transfected MEF5/N9 clones on 4-OH-tamoxifen treatment; settings: 10^−8 M 4-OH-tamoxifen, 24 h
Procedure: as §1
To examine 4-OH-tamoxifen-dependent cell death, 1·10^5 MEF5/N9 cells expressing ER(T2) fusion proteins were plated into each well of a six-well plate. The following day, for each sample the medium in two of four individual wells were replaced with medium supplemented with 10^−8 M 4-hydroxy-tamoxifen. 24 hours after induction with 4-OH-tamoxifen, cells were photographed through a Leica DMI6000B fluorescence microscope with phase contrast either at 10-fold or 20-fold magnification.
Since the responsiveness of the clones, transfected with the same construct, to 4-OH-tamoxifen differed only slightly from each other, only the results obtained from one clone for each construct are shown in the figure.

MEF5/N9 cells [3] = assay: TUNEL in situ cell death detection assay of MEF5/N9 clones; settings: 10^−8 M 4-OH-tamoxifen; for TUNEL result / apoptotic morphology (in words): 3 or 7 hours; for incubation time with 4-OH-tamoxifen at which TUNEL positive cells were detected: fixation at 2, 3, 5 and 7 hours
Source text: TUNEL, or terminal deoxynucleotidyl transferase-mediated dUTP nick end-labeling, is acknowledged as a method of choice in the rapid detection of DNA fragmentation that results from apoptotic signaling cascades (Gavrieli et al., J. Cell Biol., 119(3), 493-501 (1992)). Cleavage of genomic DNA during apoptosis may yield double-stranded, low molecular weight DNA fragments as well as single strand breaks (“nicks”) in high molecular weight DNA. Those DNA strand breaks can be identified by terminal deoxynucleotidyl transferase (TdT), which catalyzes polymerization of labeled nucleotides to free 3′-OH DNA ends in a template-independent manner. To detect 4-OH-tamoxifen induced cell death in MEF5/N9 cells, we applied the In Situ Cell Death Detection Kit, POD by Roche according to the manufacturer's instructions. Incorporated fluorescein is detected by anti-fluorescein antibody, conjugated with horse-radish peroxidase (POD). After substrate reaction, stained cells can be analyzed under light microscopy.
Two days prior to the TUNEL staining, round glass cover slips ([…]) were sterilized with 70% EtOH, dried under laminar flow and coated with Poly-L-lysine at a concentration of 50 μg/ml over night at 37° C., which allows a better attachment of cells on the cover slips. The following day, the cover slips were rinsed 3 times with PBS and dried for 1 hour under laminar flow. 2.5·10^5 cells were seeded onto cover slips in a 6-well plate. On the test day, medium was replaced either by fresh medium or medium supplemented with 10^−8 M 4-OH-tamoxifen. […] After fixation, cells were rinsed three times in PBS, covered with 100% methanol and incubated for 10 min or over night in a freezer and rinsed in PBS. Endogenous peroxidase activity was blocked by immersing cover slips for 10 min in 3% H2O2 in methanol prior to cell permeabilization. Cells were subsequently rinsed with PBS and incubated in permeabilization solution (0.1% Triton X-100 in freshly prepared 0.1% sodium citrate) for 2 min on ice. To generate a positive control, DNA strand breaks were induced by incubating permeabilized cells with 2 U/ml DNase I in 50 mM Tris-HCl, pH 7.5, 10 mM MgCl2, 1 mg/ml BSA for 10 min at room temperature, prior to labeling procedure. Cover slips were rinsed twice with PBS before incubating each sample with 25 μl TUNEL reaction mixture for 60 min at 37° C. in a humidified atmosphere in the dark. To avoid evaporative loss, cover slips were covered with parafilm. For a negative control 25 μl of Label solution without enzyme solution were added. Following labeling, cover slips were rinsed 3 times with PBS for 10 min each. To convert the fluorescence signal to a chromogenic signal, 25 μl of the POD solution were added on each sample which was covered with parafilm and incubated in a humidified chamber for 30 min at 37° C. Subsequently, cover slips were rinsed 3 times with PBS and incubated in freshly prepared 0.05% DAB in 0.1 M Tris-HCl (pH 7.4) supplemented with 0.02% H2O2 for 10-20 min at room temperature. The conversion procedure was controlled under a light microscope. The reaction was stopped with PBS until brown precipitates were well visible inside the cells. To remove DAB, cover slips were rinsed several times in PBS. Optionally, nuclear staining was performed by incubating cover slips for 15 min in 2.5 μg/ml DAPI diluted in PBS. Cover slips were mounted with a water-soluble, non-fluorescing mounting medium (Aqua-Poly/Mount; Polysciences Inc., Eppelheim, Germany) under SuperFrost slides (VWR International). Prior to the analysis of the samples under a light microscope, mounting medium was dried for 24 hours at room temperature.
To provide direct evidence for 4-OH-tamoxifen-induced apoptosis in MEF5/N9 clones expressing Caspase-8 or -9 fusion proteins, an in situ application of the TUNEL assay was performed. This method detects DNA fragmentation, one of the late events that result from apoptotic signaling cascades. […]

MEF5/N9 cells [4] = assay: Transient cotransfection of ER(T2) fusion expression vectors with β-galactosidase reporter; β-galactosidase activity in lysates; settings: no 4-OH-tamoxifen; transient transfection 50 or 100 ng vector; relative to Cre-ER(T2) without 4-OH-tamoxifen

B1: myrCasp8-ER(T2): murine Caspase-8 domain with N-terminal myristoylation motif fused to ER(T2) ligand binding domain, SEQ ID NO: 23 (protein)
chain: MGSSKSKPKDPSQRSESRTSDKVYQMKNKPRGYCLIINNHDFSKAREDITQLRKMKDRKGTDCDKEALSKTFKELHFEIVSYDDCTANEIHEILEGYQSADHKNKDCFICCILSHGDKGVVYGTDGKEASIYDLTSYFTGSKCPSLSGKPKIFFIQACQGSNFQKGVPDEAGFEQQNHTLEVDSSSHKNYIPDEADFLLGMATVKNCVSYRDPVNGTWYIQSLCQSLRERCPQGDDILSILTGVNYDVSNKDDRRNKGKQMPQPTFTLRKKLFFPPLEPSAGDMRAANLWPSPLMIKRSKKNSLALSLTADQMVSALLDAEPPILYSEYDPTRPFSEASMMGLLTNLADRELVHMINWAKRVPGFVDLTLHDQVHLLECAWLEILMIGLVWRSMEHPVKLLFAPNLLLDRNQGKCVEGMVEIFDMLLATSSRFRMMNLQGEEFVCLKSIILLNSGVYTFLSSTLKSLEEKDHIHRVLDKITDTLIHLMAKAGLTLQQQHQRLAQLLLILSHIRHMSNKGMEHLYSMKCKNVVPLYDLLLEAADAHRLHAPTSRGGASVEETDQSHLATAGSTSSHSLQKYYITGEAEGFPATA
modifications: N-terminal myristoylation motif; fusion protein myrCasp8-ER(T2)
**Q.** B1 was tested. Which “cell viability in the presence of 4-OH-tamoxifen (MTT)” value (MEF5/N9 cells [1]) did it give?
**A.** Its value is 9%.

**Q.** And the “4-OH-tamoxifen-dependent cell death, phenotype of stable clones” value (“4-OH-tamoxifen-dependent cell death” below) (MEF5/N9 cells [2])?
**A.** The value was “died in the presence of 4-OH-tamoxifen within 24 h”.

**Q.** And the “4-OH-tamoxifen-dependent cell death” value (MEF5/N9 cells [2]; listed as myrCasp8ER)?
**A.** The value was “substantial cell death”.

**Q.** What about the “TUNEL result / apoptotic morphology (in words)” value (MEF5/N9 cells [3]) of the same molecule?
**A.** Its value is “typical apoptotic morphology”.

**Q.** What about the “incubation time with 4-OH-tamoxifen at which TUNEL positive cells were detected” value (MEF5/N9 cells [3]) of the same molecule?
**A.** Its value is 3 h.

**Q.** And the “basal toxicity: relative β-galactosidase activity compared to the negative control in absence of 4-OH-tamoxifen” value (MEF5/N9 cells [4])?
**A.** The value was 6%.

B2: Cre-ER(T2): fusion of Cre recombinase to ER(T2) ligand binding domain, negative control, SEQ ID NO: 5 (protein)
chain: MSNLLTVHQNLPALPVDATSDEVRKNLMDMFRDRQAFSEHTWKMLLSVCRSWAAWCKLNNRKWFPAEPEDVRDYLLYLQARGLAVKTIQQHLGQLNMLHRRSGLPRPSDSNAVSLVMRRIRKENVDAGERAKQALAFERTDFDQVRSLMENSDRCQDIRNLAFLGIAYNTLLRIAEIARIRVKDISRTDGGRMLIHIGRTKTLVSTAGVEKALSLGVTKLVERWISVSGVADDPNNYLFCRVRKNGVAAPSATSQLSTRALEGIFEATHRLIYGAKDDSGQRYLAWSGHSARVGAARDMARAGVSIPEIMQAGGWTNVNIVMNYIRNLDSETGAMVRLLEDGDLEPSAGDMRAANLWPSPLMIKRSKKNSLALSLTADQMVSALLDAEPPILYSEYDPTRPFSEASMMGLLTNLADRELVHMINWAKRVPGFVDLTLHDQVHLLECAWLEILMIGLVWRSMEHPVKLLFAPNLLLDRNQGKCVEGMVEIFDMLLATSSRFRMMNLQGEEFVCLKSIILLNSGVYTFLSSTLKSLEEKDHIHRVLDKITDTLIHLMAKAGLTLQQQHQRLAQLLLILSHIRHMSNKGMEHLYSMKCKNVVPLYDLLLEAADAHRLHAPTSRGGASVEETDQSHLATAGSTSSHSLQKYYITGEAEGFPATA
modifications: fusion protein Cre-ER(T2)
**Q.** Which results are given for B2?
**A.** cell viability in the presence of 4-OH-tamoxifen (MTT) (MEF5/N9 cells [1]): not affected by treatment with 4-OH-tamoxifen; 4-OH-tamoxifen-dependent cell death, phenotype of stable clones (MEF5/N9 cells [2]): did not respond to 4-OH-tamoxifen; 4-OH-tamoxifen-dependent cell death, phenotype of stable clones (MEF5/N9 cells [2]; listed as CreER): not affected by the treatment with 4-OH-tamoxifen; TUNEL result / apoptotic morphology (in words) (MEF5/N9 cells [3]): TUNEL negative at any point in time

B3: Casp8-ER(T2): fusion of murine Caspase-8 domain to the ER(T2) ligand binding domain, SEQ ID NO: 20 (protein)
chain: MSESRTSDKVYQMKNKPRGYCLIINNHDFSKAREDITQLRKMKDRKGTDCDKEALSKTFKELHFEIVSYDDCTANEIHEILEGYQSADHKNKDCFICCILSHGDKGVVYGTDGKEASIYDLTSYFTGSKCPSLSGKPKIFFIQACQGSNFQKGVPDEAGFEQQNHTLEVDSSSHKNYIPDEADFLLGMATVKNCVSYRDPVNGTWYIQSLCQSLRERCPQGDDILSILTGVNYDVSNKDDRRNKGKQMPQPTFTLRKKLFFPPLEPSAGDMRAANLWPSPLMIKRSKKNSLALSLTADQMVSALLDAEPPILYSEYDPTRPFSEASMMGLLTNLADRELVHMINWAKRVPGFVDLTLHDQVHLLECAWLEILMIGLVWRSMEHPVKLLFAPNLLLDRNQGKCVEGMVEIFDMLLATSSRFRMMNLQGEEFVCLKSIILLNSGVYTFLSSTLKSLEEKDHIHRVLDKITDTLIHLMAKAGLTLQQQHQRLAQLLLILSHIRHMSNKGMEHLYSMKCKNVVPLYDLLLEAADAHRLHAPTSRGGASVEETDQSHLATAGSTSSHSLQKYYITGEAEGFPATA
modifications: fusion protein Casp8-ER(T2)
**Q.** Which “cell viability in the presence of 4-OH-tamoxifen (MTT)” value (MEF5/N9 cells [1]) does the source give for B3 here?
**A.** The value was 31%.

**Q.** What about the “4-OH-tamoxifen-dependent cell death” value (MEF5/N9 cells [2]) of the same molecule?
**A.** Its value is “died in the presence of 4-OH-tamoxifen within 24 h”.

**Q.** And the “4-OH-tamoxifen-dependent cell death” value (MEF5/N9 cells [2]; listed as Casp8ER)?
**A.** Its value is “substantial cell death”.

**Q.** And the “TUNEL result / apoptotic morphology (in words)” value (MEF5/N9 cells [3])?
**A.** The value was “typical apoptotic morphology”.

**Q.** What about the “incubation time with 4-OH-tamoxifen at which TUNEL positive cells were detected” value (MEF5/N9 cells [3]) of the same molecule?
**A.** Its value is 7 h.

**Q.** What about the “basal toxicity: relative β-galactosidase activity compared to the negative control in absence of 4-OH-tamoxifen” value (MEF5/N9 cells [4]) of the same molecule?
**A.** Its value is 17%.
